Common to all, as to experiment: flow cytometry titration on CHO-K1 cells transiently expressing the HA-tagged TIGIT mutant, Alexa488 anti-human IgG detection, four-parameter fit of percent of control, nM is from the concentration axis and paragraph 252
In general terms: In flow cytometry, cells or beads pass a laser one at a time.

One experiment deals with T1, H55A.
T1 construct: also called HA-tagged human TIGIT with mutation H55A, on CHO-K1 cells
T1 single chain: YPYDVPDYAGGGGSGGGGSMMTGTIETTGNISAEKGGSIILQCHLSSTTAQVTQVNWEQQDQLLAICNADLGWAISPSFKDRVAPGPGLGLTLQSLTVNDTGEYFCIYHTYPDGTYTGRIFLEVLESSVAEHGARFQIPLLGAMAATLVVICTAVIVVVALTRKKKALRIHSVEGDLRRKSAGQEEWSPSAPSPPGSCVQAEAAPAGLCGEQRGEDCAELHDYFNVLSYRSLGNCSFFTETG
As for the experimental part: (§1) For flow cytometry analysis of the anti-hTIGIT antibody binding epitope, HA-tagged human TIGIT proteins with or without single amino acid mutation were transiently transfected into CHO-K1 cells. After 24 hr, transfected cells were suspended in HBSS buffer (Thermo Fisher Scientific, Cat#14175095), and incubated with HuTIG1-IgG1.AA antibody at varying concentrations in 50 μL volume. After 1 hr incubation at 4° C., cells were washed and a second incubation with 50 μL Alexa488 conjugated anti-human IgG(H+L) secondary antibody (Thermo Fisher Scientific, Cat#A-11013) was performed to detect cells bound by antibody. Cells were incubated with an anti-HA antibody (Sigma, Cat# H7411) as a positive control, and non-transfected CHO-K1 cells were used as a negative control. The cells were analyzed on an Attune NxT Cytometer (Thermo Fisher Scientific) and the data were processed using FlowJo software. For each mutant, the saturating antibody binding MFI (mean fluorescence intensity) were normalized to 100% POC (percent of control), and no primary antibody binding control MFI were normalized to 0% POC. Data were then fit to a four parameter non-linear sigmoidal curve using GraphPad Prism 7 curve fitting using following formula: Y=Bottom+(Top−Bottom)/(1+10^{((Log EC}^₅₀^{-X)*HillSlope)}).
(§2) All of these residues co-locate to one discrete region on the front ([…] structure of the TIGIT IgV extracellular domain (FIG. 28).

The target in the next experiment is T2, F86A.
T2 construct: also called HA-tagged human TIGIT with mutation F86A, on CHO-K1 cells
T2 single chain: T1 single chain with A74H, F105A
The procedure: as §1, §2

For another experiment, the target named is T3, E39A.
T3 construct: also called HA-tagged human TIGIT with mutation E39A, on CHO-K1 cells
T3 single chain: T1 single chain with E58A, A74H
As for the experimental part:
as §1, §2

The next experiment addresses T4, L52A.
T4 construct: also called HA-tagged human TIGIT with mutation L52A, on CHO-K1 cells
T4 single chain: T1 single chain with L71A, A74H
As for the experimental part:
as §1, §2

Experiment [1] addresses T5, HA-tagged human TIGIT with mutation D51A, on CHO-K1 cells (human, UniProt Q495A1 22-244).
T5 construct: Built as for m17
T5 sequence: T1 single chain with D70A, A74H
As for the experimental part: as §1, §2

Experiment [2] addresses T6, HA-tagged human TIGIT with mutation H90A, on CHO-K1 cells (human, UniProt Q495A1 22-244).
T6 construct: Built as for m17
T6 sequence: T1 single chain with A74H, H109A
As for the experimental part:
as §1, §2

Substitutions are numbered along the chain they refer to. Names may count otherwise.

B1: HuTIG1-IgG1.AA (humanized IgG1/kappa form of TIG1, L234A/L235A) (antibody)
heavy: not shown
light: DIQMTQSPSSLSASVGDRVTITCRASKSISKYLAWYQQKPGKAPKLLIYSGSTLQSGVPSRFSGSGSGTDFTLTISSLQPEDFATYYCQQHNEYPWTFGGGTKVEIKRTVAAPSVFIFPPSDEQLKSGTASVVCLLNNFYPREAKVQWKVDNALQSGNSQESVTEQDSKDSTYSLSSTLTLSKADYEKHKVYACEVTHQGLSSPVTKSFNRGEC
notes: Mature full chains; also called humanized TIG1
For B1, the EC50 (in general, the concentration that produces a half-maximal response) in the experiment with H55A came out at 1.19 nM; with F86A it was 0.844 nM; with E39A it was 1.58 nM; with L52A, 2.67 nM; in experiment [1] it was 30.5 nM; in experiment [2] it was 104 nM.

The values are drawn from patent US20170281764A1 (JN BIOSCIENCES, published 2017).
